Biological target: TrkB receptor expressed in mouse oocytes (mouse) (UniProt P15209)
Experiment: cell-based or functional assay

recombinant human BDNF (Pepro-Tech, Rocky Hill, N.J.) (from UniProt P23560 19-247) (ligand)
proportion of MII oocytes that developed into blastocyst-stage embryos: 5 fold | proportion of MII oocytes that developed into two-cell stage embryos: 2 fold | proportion of oocytes showing first polar body extrusion (MII-stage oocytes), 3 ng/ml BDNF with 5% FBS: > 2 fold
